For test [1], the target named is T1, BODIPY-labeled staphylocoagulase SC (S7C)(1-325) (Staphylococcus aureus, UniProt P17855 27-351).
T1 sequence: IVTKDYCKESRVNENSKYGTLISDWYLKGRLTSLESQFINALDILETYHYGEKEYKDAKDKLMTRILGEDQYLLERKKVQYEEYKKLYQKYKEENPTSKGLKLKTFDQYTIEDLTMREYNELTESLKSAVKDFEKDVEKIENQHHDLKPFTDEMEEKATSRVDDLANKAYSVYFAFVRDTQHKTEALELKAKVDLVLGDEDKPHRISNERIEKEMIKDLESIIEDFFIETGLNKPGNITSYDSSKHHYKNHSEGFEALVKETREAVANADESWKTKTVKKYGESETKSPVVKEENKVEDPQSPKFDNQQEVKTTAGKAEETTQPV
As to the kind of experiment: equilibrium titration in solution, increase in BODIPY fluorescence.

Test [2] concerns the target T1, BODIPY-labeled staphylocoagulase SC …. Description: equilibrium titration in solution, increase in BODIPY fluorescence, quadratic binding equation.
A further test deals with Mutated Peptide Ala 9 (Staphylococcus aureus). As to the kind of experiment: solid phase competitive inhibition ELISA. (In an ELISA, binding on a coated surface is turned into a signal by an enzyme label.)
The target in another test is Mutated Peptide Ala 8 (Staphylococcus aureus). As to the kind of experiment: solid phase competitive inhibition ELISA.
Test [3] addresses Mutated Peptide Ala 8 & 9 (Staphylococcus aureus). Description: solid phase competitive inhibition ELISA.
Test [4] addresses T2, Staphylocoagulase fragment SC(1-246), unlabeled (Staphylococcus aureus, UniProt P17855 27-272).
T2 sequence: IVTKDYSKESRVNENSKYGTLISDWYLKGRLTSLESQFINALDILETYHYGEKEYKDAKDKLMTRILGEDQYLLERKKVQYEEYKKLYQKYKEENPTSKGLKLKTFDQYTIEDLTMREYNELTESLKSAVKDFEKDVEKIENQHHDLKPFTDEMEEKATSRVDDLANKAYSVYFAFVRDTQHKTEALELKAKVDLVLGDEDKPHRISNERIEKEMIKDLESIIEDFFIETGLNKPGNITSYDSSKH

In test [5] the target is T1, BODIPY-labeled staphylocoagulase SC …. As to the kind of experiment: fluorescence titration of BODIPY-SC(S7C)(1-325) with GMA-2105.
Test [6] has the same target. As to the kind of experiment: fit of the fluorescence titrations; row 'Probe SC(1-246) S7C-BodipyFL'.
The target of test [7] is T3, vWbp-(1-263) (Staphylococcus aureus).
T3 chain: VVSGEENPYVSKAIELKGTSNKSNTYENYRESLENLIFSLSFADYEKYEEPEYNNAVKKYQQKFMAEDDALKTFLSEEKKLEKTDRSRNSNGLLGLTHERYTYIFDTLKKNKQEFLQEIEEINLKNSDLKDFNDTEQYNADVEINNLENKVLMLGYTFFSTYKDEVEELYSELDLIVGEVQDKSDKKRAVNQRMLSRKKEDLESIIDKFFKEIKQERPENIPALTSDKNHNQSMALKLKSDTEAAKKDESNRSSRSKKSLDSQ
Description: Western blot of recombinant proteins, probed with GMA-2105. A general note: In western blotting, separated proteins are transferred to a membrane and probed.

A further test deals with T4, vWbp-(1-474) (Staphylococcus aureus).
T4 chain: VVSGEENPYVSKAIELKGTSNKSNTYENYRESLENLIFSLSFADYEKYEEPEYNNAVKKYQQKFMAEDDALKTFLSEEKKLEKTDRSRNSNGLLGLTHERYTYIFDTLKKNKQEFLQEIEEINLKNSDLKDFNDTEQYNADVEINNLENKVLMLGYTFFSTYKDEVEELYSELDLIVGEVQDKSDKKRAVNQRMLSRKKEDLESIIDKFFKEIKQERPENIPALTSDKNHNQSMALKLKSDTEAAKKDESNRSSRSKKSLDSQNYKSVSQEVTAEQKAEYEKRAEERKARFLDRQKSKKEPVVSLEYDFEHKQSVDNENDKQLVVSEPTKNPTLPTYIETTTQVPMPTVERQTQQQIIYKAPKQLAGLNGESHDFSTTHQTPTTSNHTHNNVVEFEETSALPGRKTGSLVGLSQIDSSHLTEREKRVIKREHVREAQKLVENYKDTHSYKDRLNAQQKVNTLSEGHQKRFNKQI
Described as above.

The next test has as its target T5, SC-(1-325), unlabeled (Staphylococcus aureus, UniProt P17855 27-351).
T5 sequence: T1 sequence with C7S
Description: Western blot of recombinant proteins; by the text, primary antibody at 10 µg/mL, HRP anti-mouse IgG, chemiluminescence.

For test [8], the target named is T2, Staphylocoagulase fragment SC(1-246), …. Description: competitive displacement of BODIPY-labeled staphylocoagulase from GMA-2105 in solution, fluorescence.
For test [9], the target named is T1, BODIPY-labeled staphylocoagulase SC ….
Test [10] has the same target. Description: fluorescence titration of BODIPY-labeled SC(1-325) with chimeric GMA-2105.
The target in test [11] is vWbp peptide vWbp(1-12) conjugated to ovalbumin (Staphylococcus aureus). Description: ELISA: purified GMA-2500 on vWbp peptide-ovalbumin, A490.
Test [12] concerns the target T3, vWbp-(1-263). Description: ELISA: purified GMA-2500 on the preparation 'vWbp 1-263 022109, RIF 0540E', A490.
The target in test [13] is vWbp peptide vWbp(1-12), […], unconjugated (Staphylococcus aureus). Description: ELISA, unconjugated peptide.
Test [14] concerns the target T3, vWbp-(1-263). Description: ELISA: purified GMA-2500 on the preparation 'vWbp 1-263 WT 011113, RIF0540D', A490.

Substitutions are numbered along the chain they refer to. Read-outs that look alike come from different tables or passages of the source.

Description for SC-(1-325), unlabeled: The elaborated proteins were transferred to PVDF membrane for western blot analysis to probe the specificity and cross-reactivity of the monoclonal antibodies targeting the critical N-termini of either SC or vWbp. […] Following primary antibody treatment, blots were washed and probed with horseradish peroxidase-labeled rabbit anti-mouse IgG that lacked the constant region and then imaged for chemiluminescence substrate oxidation using a Fuji-Films LAS1000. The blot was stripped between primary antibody challenges. […] To accomplish this, the blot was probed with the both the SC and vWbp neutralizing antibodies and then stained for total mouse IgG content using an anti-mouse IgG (H+L)-FITC polyclonal antibody.

B1: GMA-2105 murine anti-staphylocoagulase monoclonal antibody (antibody, V domains shown)
VH: EVKLEESGGGLVQPGGSMKLSCAASGFTFSDAWMDWVRQSPEKGLEWVAEIRTKANNHATYYAESVKGRFTISRDDSKSSVYLQMNSLRAEDTGIYYCTNVYYGNNDVKDYWGQGTSVTVSP
VL: DIVMTQSQKFMSTSVGDRVSVTCKASQNVDIYVAWYQQKPGQSPKALIYSASYRFSGVPDRFTGSGSGTDFTLSISNVQSEDLAEYFCQQYNNYPYTFGGGTKLEIKR
notes: also called 2A1.5H4.B7; anti-SC Ab
For orientation: Kd means the concentration at which binding is half-saturated. For the molecule B1, the stoichiometry in test [1] is 1.6 mol BODIPY-SC/mol GMA-2105; in [5] it was 2 mol staphylocoagulase/mol GMA-2105. Besides, the Kd in test [2] came to 2 nM; in test [4] it was 0.71 nM; in test [6], 1.09 nM; in test [8] it was 4 nM; in test [9] it was 0.99 nM. Moreover, the binding result with Mutated Peptide Ala 9 is “binds”; with Mutated Peptide Ala 8, “binds”; in test [3], “binds”; with vWbp-(1-263) [7], “no binding (tested: 10 µg/mL (from the text))”; with vWbp-(1-474), “no binding (tested: 10 µg/mL (from the text))”; in the test with SC-(1-325), unlabeled, “binds”. The “Stoichiometry (mol mAb / mol wild type)” value in [4] was 1.2 mol mAb / mol wild type. Also, the “Stoichiometry (mol mAb / mol probe)” value in [6] was 0.99 mol mAb / mol probe.

B2: Chimeric GMA-2105 (mouse variable regions on human constant regions) (antibody, V domains shown)
VH: B1 VH
VL: B1 VL
With B2, in test [4], the Kd came to 0.75 nM and the “Stoichiometry (mol mAb / mol wild type)” value came out at 1.35 mol mAb / mol wild type. In [6], the Kd was 0.79 nM and the “Stoichiometry (mol mAb / mol probe)” value amounted to 0.94 mol mAb / mol probe. Further, the stoichiometry in test [10] is 2 mol staphylocoagulase/mol chimeric antibody.

B3: GMA-2500 murine anti-vWbp monoclonal antibody (antibody, V domains shown)
VH: EVQLQQSGTVLARPGASVKMSCKTSGYSFTSYWIHWVKQRPGQGLEWIGAISPGNSDTNYNQNFKGKAKLTAVTSASTAYMELSSLTTEDSAVYYCATGSHYWGQGTTLSVSS
VL: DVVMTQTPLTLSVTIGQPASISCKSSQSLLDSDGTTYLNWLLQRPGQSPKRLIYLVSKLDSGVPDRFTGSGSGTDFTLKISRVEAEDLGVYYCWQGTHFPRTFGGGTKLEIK
notes: also called 10C9.D1.B6
A word on the EC50 (read off the curve): it is the concentration needed to bring the measured effect to its halfway point. Take B3: the concentration giving a half-maximal response (EC50 (read off the curve)) (in test [11]; with vWbp-(1-263) [12]; with vWbp-(1-263) [14]) was approximately 0.1 µg/mL each time. Further, in test [13], the binding result was “binds”.

For the origin of these results see patent US20210079071A1 (published 2021).
